Experimental data as given in article PMC7617965, “Interaction with AK2A links AIFM1 to cellular energy metabolism” (Molecular cell, 2025).
Blank lines part the entries; values can stand above or below the molecule they belong to. No end group written: not given here.

Legend:
[1] = biological target: MIA40 (Homo sapiens) (UniProt Q8N4Q1); details: cited from earlier work
[2] = biological target: endogenous AIFM1 (human (endogenous in HEK293)) (UniProt O95831); experiment: SEC; native lysates of HEK293 cells (WT, AIFM1 KO, AIFM1 KO with AIFM1-HA, AK2 KO with AK2A or AK2B; cycloheximide 4 h in one panel) on HiLoad 16/600 Superdex 200; fractions analysed by immunoblot, in part after a thiol shift with mmPEG24
[3] = biological target: T1, AIFM1(103-613) (human, UniProt O95831 103-613); experiment: SEC; AIFM1 incubated with AK2A, MIA40 or the interaction site peptides with NADH; unbound NADH removed by gel filtration; samples at 0 and 7 h analysed by gel filtration, absorbance at 280 nm; details: both partners purified
T1 construct: Flavoprotein with FAD; forms a dimer in the presence of NADH, which was added in most assays; also called soluble AIFM1 lacking the transmembrane domain; source: E. coli Rosetta2 (DE3), purified (Ni Sepharose)

[4] = biological target: T1, AIFM1(103-613); experiment: SEC; purified proteins, AIFM1 to AK2 or MIA40 1:2 to 1:4, 100 mM NaCl, 20 mM Tris/Cl pH 7.4, with 0.1 mM NADH, 20 min, 4°C, Superdex 200; details: both partners purified
[5] = biological target: T1, AIFM1(103-613); experiment: cell-based or functional assay

Molecule: AIFM1 (from UniProt O95831)
Kd [1]: 180 nM

B1: MIA40 C4S,C53S,C55S (natural protein, UniProt Q8N4Q1 1-142, looked up)
chain: MSYSRQEGKDRIIFVTKEDHETPSSAELVADDPNDPYEEHGLILPNGNINWNSPSLGGMASGPCGEQFKSAFSCFHYSTEEIKGSDCVDQFRAMQECMQKYPDLYPQEDEDEEEEREKKPAEQAEETAPIEATATKEEEGSS
notes: MIA40 (CHCHD4) with C4S, C53S and C55S; Only aa 2-20 are seen in the cryo-EM map; also called MIA40 SPS; purified MIA40; source: E. coli Rosetta2 (DE3), purified (Ni Sepharose)
half-life (t1/2) of the complex after removal of excess NADH [3]: > 7 h
stoichiometry N [4]: 2 per AIFM1 dimer

B3: AK2A WT peptide (peptide)
peptide: ATSKDLVMFI-NH2
notes: C-terminus of AK2 isoform A; serine stands where AK2A bears C232; also called AK2A peptide; source: synthetic peptide
half-life (t1/2) of the complex after removal of excess NADH [3]: > 7 h
apparent kcat of the NADH:DCIP oxidoreductase activity of AIFM1 with the peptide (3.3 μM); AIFM1 alone 0.37 s^−1 (DMSO) [5]: 0.71 s⁻¹

Now from value to molecule:

percent of AK2 in the fractions of the complex [2]: 5%
Molecule: adenylate kinase 2 (AK2), endogenous (from UniProt P54819 1-239) (enzyme)

half-life (t1/2) of the complex after removal of excess NADH [3]: > 7 h
apparent kcat of the NADH:DCIP oxidoreductase activity of AIFM1 with the peptide (3.3 μM); AIFM1 alone 0.50 s^−1 (H2O) [5]: 0.89 s⁻¹
B2: MIA40 WT peptide (peptide)
peptide: SYSRQEGKDRIIFVTKEDHETPSSAELVA-NH2
notes: N-terminal region of MIA40 (CHCHD4); serine stands at position 4 where MIA40 has C4; also called MIA40 peptide; source: synthetic peptide
